Reference: patent publication US20240076663A1, “PEPTIDE-NUCLEIC ACID COMPLEX HAVING BLOOD-BRAIN BARRIER PENETRATION ABILITY AND COMPOSITION COMPRISING SAME” (SEASUN THERAPEUTICS, INC, priority 2019, published 2024)
“Also recorded” adds a separate entry of the source.

Tests used:
[1] = Blood-brain barrier permeability of the nucleic acid complex in a mouse model (cy3 fluorescence in brain tissue, confocal microscopy); assay type: in vivo; settings: ICR mice, 20 mg/kg caudal vein; for distribution of fluorescence expression among brain regions: 20 mg/kg
Procedure: In order to confirm the blood-brain barrier permeability of the nucleic acid complex, 6-week-old male ICR mice (OrientBio, Korea) were purchased and acclimatized for a week, after which 20 mg/kg (n=6) of the nucleic acid complex was administered to the caudal veins thereof. In a positive control group (n=6), fluorescent-material-labeled methotrexate was administered to the caudal veins, and in a negative control group (n=6), DMSO at the same concentration as in the experimental group was diluted with saline and administered via the same route.
The mouse model was anesthetized by intraperitoneal administration of Avertin (5 mg/kg), followed by washing and fixing of the brain tissue through perfusion with saline and 4% paraformaldehyde. The fixed brain tissue was separated and dehydrated by placing the same in 30% sugar water for 24 hours, after which an embedding process was performed using OCT. The entire region of the brain tissue was cryosectioned into 30 μm sections. In order to observe the entire brain tissue from the cerebral cortex to the brainstem, the tissues were broadly separated into a total of six regions, namely the prefrontal cortex, lateral ventricle, paraventricular nucleus, hippocampus, midbrain, and cerebellum, and mounted on slide glasses, and the nuclei were stained with DAPI for 15 minutes and then analyzed using a confocal microscope.
Therefore, in order to determine whether the administered material spreads through the present system, the brain tissue was classified into six major regions from the front to the back and analyzed. In addition, in order to observe the extent of spreading over time, the groups were separately observed on day 1 and day 3, and the numerical values thereof were analyzed.
Then, for all experimental groups to which the nucleic acid complex was administered, the distribution of fluorescence in tissues depending on the administration date was numerically analyzed, and the distribution of fluorescence expression in each tissue of the brain after administration of the nucleic acid complex was compared.

[2] = general knowledge stated in the patent; cited from earlier work

Compound | fluorescence expression by cy3 in brain tissue (confocal microscopy) ([1]; FIG. 1, versus group given only methotrexate) | fluorescence expression, day 3 versus day 1 ([1]; all brain tissue regions) | distribution of fluorescence expression among brain regions ([1]; day 1) | distribution of fluorescence expression among brain regions ([1]; day 3) | bioavailability (known) [2] | blood-brain barrier crossing (known) [2]
POLIGO ™_1 (chain 1 ATGATTCTGCCCTCC; chain 2 TACTAAGACGGGAGG; chemistry not given here; one strand is listed 3' to 5') | high fluorescence expression compared to the group administered only with methotrexate | higher on day 3 than on day 1 in all brain tissue regions | higher in the midbrain and cerebellum; also recorded: high in the midbrain and cerebellum | the fluorescence spread to the prefrontal cortex; also recorded: high even in the prefrontal cortex | – | –
CN(Cc1cnc2nc(N)nc(N)c2n1)c1ccc(C(=O)N[C@@H](CCC(=O)O)C(=O)O)cc1 [Methotrexate] | – | – | – | – | very low bioavailability | known to cross the blood-brain barrier
O=C(O)CCCc1ccc(N(CCCl)CCCl)cc1 [Chlorambucil] | – | – | – | – | – | incapable of crossing the blood-brain barrier
